Measured values as given in the supplement of paper PMC11502859.

system: HEK293T; test: median enrichment of reporter reads in eGFP-reduced (low/intermediate) vs eGFP-high sorted cells (eGFP-extension fusion abundance) (ratio); higher = stronger loss of eGFP-fusion protein abundance (more destabilising extension)
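Further: lentiviral eGFP-IRES-mCherry reporter pool sorted by FACS 96 h post-transduction, gated on mCherry-high cells, Illumina read counts normalized per million, median across four biological replicates.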

Substance | median enrichment
WPQFQLSWAPAWTLPMAMPSLGNLSLPSVG [PLA2G3] | 12.4
WPRLSTCHLLACLTLRTHLPGPSLFHPREAELPKTQVFSYLFPILRGFP [ZDHHC18] | 17.8
WPSLPPKPRACLSAQLEGPRLQGVLPQSRCFLCIRDPLPSHPVSCLHRWIIFEPPCVDHFEPPGLAQFILIKVFLGGILGT [PARVG] | 9.47
WPSLRPTCTSGSKWVSSGSPARVLSECLCVCINICIPFGSIAAV [XPNPEP3] | 17
WPSPPCQGQDPDFSKCGSHSAGTCRDMRGGCCHGRLPLHTRHWGSDPPGRWPFSPSS [CYSRT1] | 2.04
WPSSLPPKPTTQC [KPNA7] | 0.282
WPTSRIYSSWKLPNGEDSTKY [KRTAP24-1] | 3.66
WPV [HNRNPUL1] | 0.672
WPVPGALLRPTTASWVGRTGSGGKSQRDQDGGCGAAFPVASIARRVFVCLSVFLTSFFYIFISRQS [NR6A1] | 9.66
WPVRPLSSPS [TBL3] | 0.256
WPYWLTPENGLLLDGHGRINFSKMFWVGVE [ACTL8] | 1.37
WQAAGAWGLHWLPPAP [HNF4A] | 5.96
WQAGS [IFITM5] | 0.552
WQDLLTSS [VN1R4] | 0.623
WQGLPQHQSGDCDREGLAGTPRASGVVTDQEGLARTSANICGAAANNAAITENMVLVLKNVQCHFQQFKINRQNHPVARIT [OR2T2] | 6.25
WQHFCILKKCNLFLITALKL [UBQLN1] | 12.2
WQKSKGHPVPGRLSGICSPVPGTKSSTAAVKKHALESLEHEEKQGLVHMFFGISL [IL1RAPL1] | 10.6
WQLPGDSRLSDSLQEKTVRPPFGPH [SYCE2] | 0.972
WQMVIPFYFSS [CXorf1] | 10.3
WQP [TP53AIP1] | 0.544
WQPPASHTVLQLTAHVHAVRADSSSTQQTRTYGLWMDADDGTVQ [CALN1] | 8.36
WQQPQG [CCNB3] | 0.678
WQRRS [GIMAP1] | 0.693
WRATGPQQCEGSLAAHPAAGAQPLPGMRLSADGETATQSFGLCVCVCVCVCVCAHPRVPVCVRILPPGAEVPWVSPLLCNGLL [FGFR3] | 3.69
WRCRHPSPIIKST [CPS1] | 8.4

Substance | median enrichment
WREGSNGSRELDTVHPNTSPPPGHLEESSARIPRQSSPPAPAVPSCAVLLPHSAPGPCPFIPLKHPLKPLHHFHSQQKVIEHL [HAUS5] | 4.17
WRFLLKLTLFHLSF [VHL] | 9.11
WRFPLPSSQPP [MEF2D] | 2.36
WRGARAPWSL [CEP104] | 1.95
WRGEGRPAVDSLILGRSLGCAAISFCECANTKLSRAKL [SLC25A25] | 6.74
WRGLQGSLLWVPT [RNF152] | 6.67
WRKRDAGTHPCLREVWLSPNPPHRPPFTKHLSCLMCPIELHSVRLDAVISGTYVTMFAEAPGVVGRGGRCG [RNF144A] | 6.33
WRLIIYQEC [PKIB] | 7.89
WRLRASRRDLMPRGGGCL [CTU1] | 5.49
WRLSISRDMVLTQQFPVMAKCSI [IL13RA2] | 5.59
WRPAPARMGGGVERRTPIG [NSG2] | 3.66
WRPGRRGPSSGG [Degron KLHDC2] | 10.7
WRPNSRTPK [SNRNP35] | 0.861
WRPPHFRFGFRKTFSEKKLFF [TFDP1] | 5.19
WRPRIQH [FAR1] | 1.02
WRQRGGKETWLSLIICIQITVL [ATXN1] | 8.6
WRRLVSTHSGAFLISSSHTNHPSLPIVSSSQ [CYP19A1] | 12.8
WRSCAAQSQTPAPTTYFCYTQEHFRKLSQLIFCFSSMSILSVSHFEDFFSLLYLCFSFFGFYFVVLSVIFNVPKICTCSIKNV [HOOK3] | 2.08
WSAVA [EFCAB2] | 0.771
WSDCPENQKSKETRETSSLVNEPIKSRSLKKYVSVKKENRIVTVSSKTNKSKSSPLEHSESDTLGCDFEFQESIHSLSHLSYD [CEP78] | 1.3
WSFSHSSPSQRCDGRWTLSGEDALLLGRCSGSFSGARTEAPCDFRPGSMWACNFLHSQLGPIPGFKMVAIPEESP [SUSD1] | 3.48
WSGKLGAFGLKGRMFPVFLDNKLGK [PKHD1] | 11.8
WSICLLNDTSLIYCTIS [RTCA] | 12.5
WSILQDLPEAA [PCDH10] | 9.03
WSLKWRTCVFIISAKVLTSCAFPITSRSNYQLVWIFGPPFSHFGLPCSQNILNESIGIQKDSRQNERK [VCAN] | 11.9

Substance | median enrichment
WSLRWSFVTARFARHLPGWLVLG [ARHGEF26] | 15.8
WSLTRSLISRSTCVFIPPGN [FLT1] | 4.28
WSLVTPIEI [OR52A5] | 7.53
WSPLSRDSGKGGFLHPTPLLPWL [KIAA1191] | 5.6
WSPMPAHL [CDNF] | 9.59
WSPQHQGGPSLKRKEPTQVRGLPIPPSQVSTFALPPSHWGPCRSWSGLTVPSPGTQLKGPQPKL [CAND2] | 8.57
WSPTRPERPEMVLTMLPANRSRKPACE [ANXA2] | 1.38
WSQFPVTRTILATLFESIQVVWPMILLLTYLSTSSGPCPFGKLSFFLLHWGTGC [CLEC5A] | 9.24
WSQLTSLSRKVYP [CD9] | 1.91
WSRS [LCE3E] | 1.42
WSSSSNSICKEHFSLKTCIWIIIITTF [CCDC148] | 3.42
WSSSSSFIGLSGC [EDARADD] | 1.2
WSSVVE [TMEM17] | 0.673
WSTPAWYRHTQGLPCLHSPA [PDZD3] | 5.04
WTAERTMHPSAWWSLRDRSDDPRRLWRTI [LILRA2] | 6.78
WTGFAYLVLTLHHHHLMPTCPHPAELLSGHSLLLPFLLPLALPGPACTPVGWKCTAGSGSGSAPLWDPTFFSSLLLK [PTPN23] | 7.32
WTHPLVVDRLPGTTIIPGPPRASEFETLAEIK [TBC1D7] | 4.38
WTTNTQRNNLFTTPGCMIEGEASTSTSRGP [TTLL5] | 16.4
WTYVLC [OR2L5] | 7.99
WVAPPSWGEVPSRLRRRGARGRS [PHLDB3] | 16.2
WVDGRNIFINQIESIYKNGSRILPQFFCQKVCIYVCIYIYLYIYMTDVF [GCC2] | 11.6
WVEKKKKIKKQNKTHAPKK [NPIPB6] | 1.29
WVGGISETGKVAALSHFFWNSWWSPGLGHCLSPACFFVRSGIISKCS [SLC35E2A] | 40.8
WVKEEKPSTP [TAS2R19] | 0.336
WVLIPTFPCDLGCRCSCCKMEANLTGVL [ADD2] | 6.13

Substance | median enrichment
WVLSRAVEVPVIPAGAAATQSGRQGGEHLSATETNHSLFAQHASSSVLHSSPGSLSGSSTESFCSLKCWDA [CGNL1] | 8.11
WVPSEVFIPACVI [VPS13B] | 13.3
WVSAVLGTPAHSTLLEYLFPNATSVCFFLFPQSLSVSEPWAL [LALBA] | 10.8
WVVGSPADGSTWTWG [GABARAPL1] | 6.43
WWF [LRRCC1] | 1.79
WWHELLASLDGQSKKKLVYFVQICHKLKAVTGEKD [PIWIL4] | 22.9
WWLWLQRT [FAAH] | 11.2
WWPRIPIEQHKARLG [RNF216] | 26.7
WWRDTRGLATLWGNWHQELLHLVSAQVDLRKGWIPVPEHQIPRQLMRLAQCVTEAPGSQQSRAYSAHQAEQATGRDDASGQGS [CCDC137] | 7.53
WWSCDVHEVLPHALEGSESRVNCPADILLGFLA [SLC7A6OS] | 8.62
WWW [Trp03] | 2.55
WWWRHAQWMILLLPATSTSRNESLGGCQELVLAPPPP [MAP4K1] | 13
WWWW [Trp04] | 7.39
WWWWW [Trp05] | 7.38
WWWWWW [Trp06] | 3.74
WWWWWWW [Trp07] | 3.21
WWWWWWWW [Trp08] | 4.57
WWWWWWWWW [Trp09] | 3.84
WWWWWWWWWW [Trp10] | 4.65
WYHMFSWYVN [ABHD10] | 5.5
WYSFHYSI [BTN3A3] | 6.28
WYTF [PNISR] | 2.74
YAAIDSRSLYTVTSEDYT [SLC46A3] | 6.41
YAATAKKNRVRKLLGWVDLGIFYLVKALYSHRRKIWDISIIYILI [RFPL3] | 45.1
YAATDLGHLSQLAHPPPLPNFRYLSILLK [FBXL6] | 5.29

Substance | median enrichment
YAKSRCTQHVLGMQPQEVPDLKQPDSYLA [GREM1] | 22.9
YALDKNLNRKNNSKAYLMKQ [CYLC2] | 2.34
YALGKKDCNQRKSIGVEEIKLTLFWLFF [GLI3] | 23.4
YALNINSVLQIFITYLLQSQNPKIFIKSKYLMSFEGSLSYTK [C10orf88] | 1.47
YALPSWPLISAWVDHPRLQRVEGGSSSWESF [TMEM214] | 7.05
YAPL [SLC3A1] | 0.632
YAPRR [OTUD6A] | 0.578
YAQLAICKVTSAKFSFGSYPRAPMSSYQEVINVTPFHRLKGVITLLLG [PAFAH2] | 4.37
YAQP [MST1] | 0.278
YAQPGPQIRSAQQRPGPSSRTTRPHHASCSQTQN [CCDC27] | 0.132
YARWLRNTGEASAFGKEICFGDDLSGNLNLLL [GBA3] | 5.41
YASHLASWVCRSSRLAPSMYPGEIPARHPPPGPG [LSP1] | 4.74
YASLAAGTSTWRS [CRB2] | 2.41
YASRRRRRRGRAAGGTAQATQGRPLRPGGQGGRPASGDRLPPGLWQDVPSEGYFEEPPGPGDREAPVSSMNALPRTQARASGV [MSANTD1] | 1.01
YATRRCPRPSRRRGSLAGAAPPCVRPAGAHVF [HHIPL1] | 11.3
YAVGTESEYF [GFRA2] | 0.617
YAVQSSFSGA [NLRP8] | 5.86
YCLKGFY [GNL2] | 8.39
YCLRGRLAASPAPPDLAPRAAAGAAACPGPPLRPASSRRPGAQPCAAEDSRDWRRPRPATAGARGHLPGLLTLSPHWEWAPRG [TMUB1] | 5.27
YCLSILVHGCFERYGRQSPGHN [MAGEC3] | 5.24
YCPGVCCLAHMSLL [CLSTN2] | 19.2
